From the supplement of paper PMC9112550, “Optimization of the antimicrobial peptide Bac7 by deep mutational scanning” (BMC Biology, 2022)

Tested on: Escherichia coli TOP10
Experiment: shrunken log2 fold change of peptide-encoding DNA abundance (4.5 h post-induction vs induction); higher = less antimicrobial activity (less host growth inhibition)
Conditions: time post-induction: 4.5 h; library: site-saturation at positions 5, 18, 19, 20
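Note: peptides expressed intracellularly from a pBAD plasmid library in pooled LB shake-flask culture, induced with 0.3% L-arabinose, DNA abundance read by NGS, three biological replicates, DESeq2 with apeglm shrinkage.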

Sequence	shrunken log2 fold change
RRIRVRPPRLPRPRPRPAKHPRP	-0.169
RRIRARPPRLPRPRPRPFEKPRP	-0.122
RRIRWRPPRLPRPRPRPIWYPRP	-0.149
RRIRKRPPRLPRPRPRPKYHPRP	-0.204
RRIRCRPPRLPRPRPRPPTTPRP	0.353
RRIRDRPPRLPRPRPRPRQVPRP	0.262
RRIRQRPPRLPRPRPRPNLPPRP	0.0275
RRIRSRPPRLPRPRPRPEPNPRP	0.374
RRIRERPPRLPRPRPRPWSIPRP	0.0521
RRIRYRPPRLPRPRPRPKRKPRP	-0.128
RRIRDRPPRLPRPRPRPGSCPRP	0.127
RRIRTRPPRLPRPRPRPYQEPRP	-0.182
RRIRMRPPRLPRPRPRPRADPRP	1.73
RRIRERPPRLPRPRPRPTDSPRP	0.0161
RRIRFRPPRLPRPRPRPYKKPRP	-0.415
RRIRLRPPRLPRPRPRPQGGPRP	0.0226
RRIRWRPPRLPRPRPRPNKYPRP	-0.481
RRIRERPPRLPRPRPRPNAEPRP	0.103
RRIRKRPPRLPRPRPRPRKIPRP	0.968
RRIRNRPPRLPRPRPRPTLGPRP	0.3
RRIRVRPPRLPRPRPRPQYNPRP	-0.851
RRIRMRPPRLPRPRPRPSVEPRP	0.227
RRIRNRPPRLPRPRPRPMDNPRP	-0.105
RRIRDRPPRLPRPRPRPWHHPRP	-0.179
RRIRHRPPRLPRPRPRPITDPRP	-0.229

Sequence	shrunken log2 fold change
RRIRDRPPRLPRPRPRPLVLPRP	0.176
RRIRDRPPRLPRPRPRPGYNPRP	-0.0937
RRIRGRPPRLPRPRPRPQIYPRP	0.185
RRIRTRPPRLPRPRPRPALLPRP	0.226
RRIRLRPPRLPRPRPRPNTEPRP	0.019
RRIRRRPPRLPRPRPRPYIAPRP	-0.54
RRIRQRPPRLPRPRPRPYATPRP	-0.326
RRIRSRPPRLPRPRPRPLTWPRP	-0.104
RRIRQRPPRLPRPRPRPYIGPRP	-0.681
RRIRGRPPRLPRPRPRPWRSPRP	0.172
RRIRKRPPRLPRPRPRPMRGPRP	0.874
RRIRVRPPRLPRPRPRPHDPPRP	0.0847
RRIRNRPPRLPRPRPRPNCEPRP	-0.185
RRIRERPPRLPRPRPRPNTNPRP	-0.0492
RRIRPRPPRLPRPRPRPTYQPRP	-0.0514
RRIRFRPPRLPRPRPRPEVIPRP	0.0373
RRIRCRPPRLPRPRPRPFRDPRP	-0.0732
RRIRHRPPRLPRPRPRPPYEPRP	-0.486
RRIRARPPRLPRPRPRPFHDPRP	-0.356
RRIRERPPRLPRPRPRPFFVPRP	-0.292
RRIRPRPPRLPRPRPRPQYKPRP	-0.129
RRIRHRPPRLPRPRPRPKKAPRP	0.0601
RRIRNRPPRLPRPRPRPLYMPRP	-0.308
RRIRGRPPRLPRPRPRPFCLPRP	0.229
RRIRVRPPRLPRPRPRPFGMPRP	-0.0877
